Columns and labels:
COc1cccc(CO)c1 = test: purified protein; details: apparent, FAD-reconstituted enzyme, 0.1 M sodium phosphate pH 6.0
[1] = target: T1, rAOx (recombinant alcohol oxidase, A. terreus MTCC6324) (Aspergillus terreus, UniProt I7FDJ2); test: FAD fluorescence quenching (ex […] nm, em […] nm) after reconstitution of apoenzyme; assay type: binding; details: refolding of apo-rAOx with 0.08 mM FAD, pH 9.0, 16 °C, ~80 h
T1 construct: gene AOx; full-length ORF 2001 bp, 666 residues; pET28a(+), N- and C-terminal His6 kept; ~74-76 kDa; highly aggregated (~1000 nm)
T1 sequence (I7FDJ2 1-666): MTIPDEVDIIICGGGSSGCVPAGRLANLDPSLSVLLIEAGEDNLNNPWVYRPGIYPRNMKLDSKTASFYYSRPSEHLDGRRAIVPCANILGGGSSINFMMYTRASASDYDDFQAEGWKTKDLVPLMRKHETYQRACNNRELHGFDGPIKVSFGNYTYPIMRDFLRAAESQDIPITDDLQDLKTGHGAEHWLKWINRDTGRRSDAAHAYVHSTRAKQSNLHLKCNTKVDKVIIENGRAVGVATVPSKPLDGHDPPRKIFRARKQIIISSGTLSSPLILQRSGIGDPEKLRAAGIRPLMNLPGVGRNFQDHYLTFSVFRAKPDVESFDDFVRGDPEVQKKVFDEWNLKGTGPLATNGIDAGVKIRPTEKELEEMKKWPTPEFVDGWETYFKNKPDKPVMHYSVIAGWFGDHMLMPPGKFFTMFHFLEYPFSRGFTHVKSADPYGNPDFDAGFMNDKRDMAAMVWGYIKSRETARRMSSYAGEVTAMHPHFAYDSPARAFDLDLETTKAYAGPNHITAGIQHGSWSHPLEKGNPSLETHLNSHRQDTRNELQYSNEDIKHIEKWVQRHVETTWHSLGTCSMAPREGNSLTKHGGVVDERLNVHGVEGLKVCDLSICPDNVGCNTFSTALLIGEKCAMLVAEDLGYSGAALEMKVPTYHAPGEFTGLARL

purified protein [2] = substrate: COc1ccc(CO)cc1OC; test: purified protein; assay type: biochemical, Aspergillus terreus; details: apparent, FAD-reconstituted enzyme, 0.1 M sodium phosphate pH 6.0
purified protein [3] = substrate: OCc1ccccc1; test: purified protein; assay type: biochemical, Aspergillus terreus; details: apparent, FAD-reconstituted enzyme, 0.1 M sodium phosphate pH 6.0

## rAOx (recombinant alcohol oxidase, A. terreus MTCC6324) (Aspergillus terreus)
COc1cccc(CO)c1
  Km: 2.88 mM
  kcat: 106 s⁻¹
  kcat/Km: 36700 M⁻¹ s⁻¹

## Cc1cc2nc3c(=O)[nH]c(=O)nc-3n(C[C@H](O)[C@H](O)[C@H](O)COP(=O)(O)OP(=O)(O)OC[C@H]3O[C@@H](n4cnc5c(N)ncnc54)[C@H](O)[C@@H]3O)c2cc1C [FAD]
[1]
  FAD fluorescence quenching (ex 443 nm, em 527 nm) after reconstitution of apoenz: lower fluorescence intensity of the holoenzyme relative to that of free FAD inferred efficient incorporation

B1: rAOx (recombinant alcohol oxidase, A. terreus MTCC6324) (Aspergillus terreus) (protein)
chain: MTIPDEVDIIICGGGSSGCVPAGRLANLDPSLSVLLIEAGEDNLNNPWVYRPGIYPRNMKLDSKTASFYYSRPSEHLDGRRAIVPCANILGGGSSINFMMYTRASASDYDDFQAEGWKTKDLVPLMRKHETYQRACNNRELHGFDGPIKVSFGNYTYPIMRDFLRAAESQDIPITDDLQDLKTGHGAEHWLKWINRDTGRRSDAAHAYVHSTRAKQSNLHLKCNTKVDKVIIENGRAVGVATVPSKPLDGHDPPRKIFRARKQIIISSGTLSSPLILQRSGIGDPEKLRAAGIRPLMNLPGVGRNFQDHYLTFSVFRAKPDVESFDDFVRGDPEVQKKVFDEWNLKGTGPLATNGIDAGVKIRPTEKELEEMKKWPTPEFVDGWETYFKNKPDKPVMHYSVIAGWFGDHMLMPPGKFFTMFHFLEYPFSRGFTHVKSADPYGNPDFDAGFMNDKRDMAAMVWGYIKSRETARRMSSYAGEVTAMHPHFAYDSPARAFDLDLETTKAYAGPNHITAGIQHGSWSHPLEKGNPSLETHLNSHRQDTRNELQYSNEDIKHIEKWVQRHVETTWHSLGTCSMAPREGNSLTKHGGVVDERLNVHGVEGLKVCDLSICPDNVGCNTFSTALLIGEKCAMLVAEDLGYSGAALEMKVPTYHAPGEFTGLARL
notes: full-length ORF 2001 bp, 666 residues; pET28a(+), N- and C-terminal His6 kept; ~74-76 kDa; highly aggregated (~1000 nm)
Purified protein [2]
  Km: 4.91 mM
  kcat: 115 s⁻¹
  kcat/Km: 23500 M⁻¹ s⁻¹
Purified protein [3]
  Km: 10.80 mM
  kcat: 2.16 s⁻¹
  kcat/Km: 200 M⁻¹ s⁻¹

From article PMC3994049, “Molecular Characterization and Expression of a Novel Alcohol Oxidase from Aspergillus terreus MTCC6324” (PLoS ONE, 2014)
